Measured values reported in patent publication US20040052794A1 (published 2004).

Key:
[1] = molecular target: human wild-type p53 (product of p53-H8 cDNA, plasmid pSP65-p53H8) (human, UniProt P04637 1-393); experiment: cell-based or functional assay
[2] = molecular target: T1, GST-RB18A-N1 (aa 436 to 1566) fusion protein (human, UniProt Q15648 451-1581); experiment: GST pull-down of 35S-translated product on glutathione Sepharose beads
T1 construct: D9 cDNA cloned downstream of the glutathione transferase gene in pGEX4T-3; also called GST-RB18A fusion protein; mutant 1; not shown: GST moiety (glutathione transferase of pGEX4T-3) and the vector linker between GST and RB18A
Text: (§1) GST fusion proteins were produced in E. coli strain BL21 and purified on glutathione Sepharose 4B beads (Pharmacia LKB) as described by the manufacturer. […] After washing, pelleting, and boiling in Laemmli buffer, eluted proteins were resolved on 10% SDS/PAGE and visualized by autoradiography.

[3] = molecular target: T1, GST-RB18A-N1 (aa 436 to 1566) fusion …; experiment: GST pull-down, quantification of retained protein
Text: as §1

human wild-type p53 (product of p53-H8 cDNA, plasmid pSP65-p53H8), sequence (P04637 whole entry, the tested form may be a part): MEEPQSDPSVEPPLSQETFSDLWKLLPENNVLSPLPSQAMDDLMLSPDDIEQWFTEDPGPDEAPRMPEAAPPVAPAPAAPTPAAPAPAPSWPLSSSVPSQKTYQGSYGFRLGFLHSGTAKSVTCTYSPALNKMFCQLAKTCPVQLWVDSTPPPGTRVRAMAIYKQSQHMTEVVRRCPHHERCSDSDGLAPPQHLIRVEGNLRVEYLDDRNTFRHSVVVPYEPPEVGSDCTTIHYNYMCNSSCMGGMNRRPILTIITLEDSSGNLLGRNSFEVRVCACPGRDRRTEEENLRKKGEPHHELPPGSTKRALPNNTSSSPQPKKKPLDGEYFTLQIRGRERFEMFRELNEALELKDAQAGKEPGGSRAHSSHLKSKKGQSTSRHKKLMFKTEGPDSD

Row | Binder | activation of the IGF-BP3 promoter (reporter gene in H1299 and K562 cells) [1] [fold] | activation of the MDM2 promoter (reporter gene in H1299 and K562 cells) [1] [fold] | activation of the p21Waf1 promoter (reporter gene in H1299 and K562 cells) [1] [fold] | % of input bound [2] | molar ratio retained on GST-RB18A [3] [molar ratio]
1 | carboxy-terminal domain of RB18A expressed in transfected cells (cDNA nucleotides 3935 to 4933) (other) LGSSGSLSQKTPPSSNSCTASSSSFSSSGSSMSSSQNQHGSSKGKSPSRNKKPSLTAVIDKLKHGVVTSGPGGEDPLDGQMGVSTNSSSHPMSSKHNMSGGEFQGKREKSDKDKSKVSTSGSSVDSSKKTSESKNVGSTGVAKIIISKHDGGSPSIKAKVTLQKPGESSGEGLRPQMASSKNYGSPLISGSTPKHERGSPSHSKSPAYTPQNLDSESESGSSIAEKSYQNSPSSDDGIRPLPEYSTEKHKKHKKEKKKVKDKDRDRDRDKDRDKKKSHSIKPESWSKSPISSDQSLSMTSNTILSADRPSRLSPDFMIGEEDDDLMDVALIGN | 13 | 5 | 10 | – | –
2 | in vitro translated product of D9 cDNA (partial RB18A, aa 436 to 1566) (other, 35S-methionine labelled, also called 35S-RB18A protein; in vitro translated D9 protein) SVSFQHPVNDSLVCVVMDVQGLTHVSCKLYKGLSDALICTDDFIAKVVQRCMSIPVTMRAIRRKAETIQADTPALSLIAETVEDMVKKNLPPASSPGYGMTTGNNPMSGTTTSTNTFPGGPIATLFNMSMSIKDRHESVGHGEDFSKVSQNPILTSLLQITGNGGSTIGSSPTPPHHTPPPVSSMAGNTKNHPMLMNLLKDNPAQDFSTLYGSSPLERQNSSSGSPRMEICSGSNKTKKKKSSRLPPEKPKHQTEDDFQRELFSMDVDSQNPIFDVNMTADTLDTPHITPAPSQCSTPPTTYPQPVPHPQPSIQRMVRLSSSDSIGPDVTDILSDIAEEASKLPSTSDDCPAIGTPLRDSSSSGHSQSTLFDSDVFQTNNNENPYTDPADLIADAAGSPSSDSPTNHFFHDGVDFNPDLLNSQSQSGFGEEYFDESSQSGDNDDFKGFASQALNTLGVPMLGGDNGETKFKGNNQADTVDFSIISVAGKALAPADLMEHHSGSQGPLLTTGDLGKEKTQKRVKEGNGTSNSTLSGPGLDSKPGKRSRTPSNDGKSKDKPPKRKKADTEGKSPSHSSSNRPFTPPTSTGGSKSPGSAGRSQTPPGVATPPIPKITIQIPKGTVMVGKPSSHSQYTSSGSVSSSGSKSHHSHSSSSSSSASTSGKMKSSKSEGSSSSKLSSSMYSSQGSSGSSQSKNSSQSGGKPGSSPITKHGLSSGSSSTKMKPQGKPSSLMNPSLSKPNISPSHSRPPGGSDKLASPMKPVPGTPPSSKAKSPISSGSGGSHMSGTSSSSGMKSSSGLGSSGSLSQKTPPSSNSCTASSSSFSSSGSSMSSSQNQHGSSKGKSPSRNKKPSLTAVIDKLKHGVVTSGPGGEDPLDGQMGVSTNSSSHPMSSKHNMSGGEFQGKREKSDKDKSKVSTSGSSVDSSKKTSESKNVGSTGVAKIIISKHDGGSPSIKAKVTLQKPGESSGEGLRPQMASSKNYGSPLISGSTPKHERGSPSHSKSPAYTPQNLDSESESGSSIAEKSYQNSPSSDDGIRPLPEYSTEKHKKHKKEKKKVKDKDRDRDRDKDRDKKKSHSIKPESWSKSPISSDQSLSMTSNTILSADRPSRLSPDFMIGEEDDDLMDVALIGN | – | – | – | 10 % of input | 1
